Holding throughout (test): purified protein
Settings in all cases: 50 mM sodium phosphate pH 7.0, 30 °C, BSA added to enzyme dilution

For data set [1], the system named is CC(C)(O/N=C(\C(=O)N[C@@H]1C(=O)N2C(C(=O)[O-])=C(C[n+]3ccccc3)CS[C@H]12)c1csc(N)n1)C(=O)O.
Data set [2] deals with CO/N=C(\C(=O)N[C@@H]1C(=O)N2C(C(=O)[O-])=C(C[N+]3(C)CCCC3)CS[C@H]12)c1csc(N)n1.
Data set [3] deals with CO/N=C(\C(=O)N[C@@H]1C(=O)N2C(C(=O)O)=C(CSc3nc(=O)c(=O)[nH]n3C)CS[C@H]12)c1csc(N)n1.
Data set [4] concerns CO/N=C(\C(=O)N[C@@H]1C(=O)N2C(C(=O)O)=C(COC(C)=O)CS[C@H]12)c1csc(N)n1.

As a reminder, the Km is the substrate concentration at which the rate is half of its maximum. By kcat is commonly meant the number of substrate molecules converted per active site and unit of time at saturation. By kcat/Km is commonly meant the second-order rate constant that governs catalysis at low substrate concentration. With CTX-M-1 (Escherichia coli), the Km in data set [1] turned out to be 328.8 ± 42 µM; in data set [2], 146 ± 21.3 µM; in data set [3], 10.5 ± 1.8 µM; in data set [4] it was 17.8 ± 2.5 µM. Moreover, the kcat in data set [1] is 43.6 ± 3.7 s⁻¹; in data set [2], 27.9 ± 8.6 s⁻¹; in data set [3], 105 ± 4.3 s⁻¹; in data set [4], 111 ± 25 s⁻¹. Besides, the kcat/Km in data set [1] was 130000 M⁻¹ s⁻¹; in data set [2], 190000 M⁻¹ s⁻¹; in data set [3], 9.98e+06 M⁻¹ s⁻¹; in data set [4], 6.2e+06 M⁻¹ s⁻¹.
